# Measured values reported in paper PMC10456876 (2023).
# B1: wild-type MBP-tagged TRF1core (TRF1-TIN2-TPP1) (complex)
# chain 1: MAEDVSSAAPSPRGCADGRDADPTEEQMAETERNDEEQFECQELLECQVQVGAPEEEEEEEEDAGLVAEAEAVAAGWMLDFLCLSLCRAFRDGRSEDFRRTRNSAEAIIHGLSSLTACQLRTIYICQFLTRIAAGKTLDAQFENDERITPLESALMIWGSIEKEHDKLHEEIQNLIKIQAIAVCMENGNFKEAEEVFERIFGDPNSHMPFKSKLLMIISQKDTFHSFFQHFSYNHMMEKIKSYVNYVLSEKSSTFLMKAAAKVVESKRTRTITSQDKPSGNDVEMETEANLDTRKSVSDKQSAVTESSEGTVSLLRSHKNLFLSKLQHGTQQQDLNKKERRVGTPQSTKKKKESRRATESRIPVSKSQPVTPEKHRARKRQAWLWEEDKNLRSGVRKYGEGNWSKILLHYKFNNRTSVMLKDRWRTMKKLKLISSDSED
# chain 2: MATPLVAGPAALRFAAAASWQVVRGRCVEHFPRVLEFLRSLRAVAPGLVRYRHHERLCMGLKAKVVVELILQGRPWAQVLKALNHHFPESGPIVRDPKATKQDLRKILEAQETFYQQVKQLSEAPVDLASKLQELEQEYGEPFLAAMEKLLFEYLCQLEKALPTPQAQQLQDVLSWMQPGVSITSSLAWRQYGVDMGWLLPECSVTDSVNLAEPMEQNPPQQQRLALHNPLPKAKPGTHLPQGPSSRTHPEPLAGRHFNLAPLGRRRVQSQWASTRGGHKERPTVMLFPFRNLGSPTQVISKPESKEEHAIYTADLAMGTRAASTGKSKSPCQTLGGRALKENPVDLPATEQKENCLDCYMDPLRLSLLPPRARKPVCPPSLCSSVITIGDLVLDSDEEENGQGEGKESLENYQKTKFDTLIPTLCEYLPPSGHGAIPVSSCDCRDSSRPL
# chain 3: MAGSGRLVLRPWIRELILGSETPSSPRAGQLLEVLQDAEAAVAGPSHAPDTSDVGATLLVSDGTHSVRCLVTREALDTSDWEEKEFGFRGTEGRLLLLQDCGVHVQVAEGGAPAEFYLQVDRFSLLPTEQPRLRVPGCNQDLDVQKKLYDCLEEHLSESTSSNAGLSLSQLLDEMREDQEHQGALVCLAESCLTLEGPCTAPPVTHWAASRCKATGEAVYTVPSSMLCISENDQLILSSLGPCQRTQGPELPPPDPALQDLSLTLIASPPSSPSSSGTPALPGHMSSEESGTSISLLPALSLAAPDPGQRSSSQPSPAICSAPATLTPRSPHASRTPSSPLQSCTPSLSPRSHVPSPHQALVTRPQKPSLEFKEFVGLPCKNRPPFPRTGATRGAQEPCSVWEPPKRHRDGSAFQYEYEPPCTSLCARVQAVRLPPQLMAWALHFLMDAQPGSEPTPM
# modifications: phosphoserine at 434, 435 and 437 (reported for the purified TRF1core sample from Sf9)
# Biological target: human telomeric nucleosome core particle (teloNCP) (human, UniProt P68431 1-136; P62805 1-103; P04908 1-130; P06899 1-124)
# Test: EMSA, concentration at 50% bound
binder,measurement,value
B1,EC50,37 nM
